Measured values taken from patent publication US20090098142A1 (published 2009).

Tests used:
[1] = target: T1, native human IL-13 (human, UniProt P35225 34-146); test: cell-based or functional assay
[2] = target: T2, cynomolgus monkey IL-13 (NHP IL-13) (cynomolgus monkey, UniProt Q5I6E4 21-132 (Macaca thibetana entry)); test: cell-based or functional assay
T2 chain: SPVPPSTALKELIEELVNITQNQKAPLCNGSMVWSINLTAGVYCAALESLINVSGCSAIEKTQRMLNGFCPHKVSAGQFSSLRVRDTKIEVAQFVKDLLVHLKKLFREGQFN

[3] = target: T3, NHP-IL-13 in a complex with immobilized sIL-13Rα2-Fc (cynomolgus monkey; human, UniProt Q14627 27-343, limits assumed); test: SPR (BIACORE), sIL-13Rα2-Fc amine-coupled to a CM5 chip, NHP-IL-13 injected, then antibody
T3 construct: not shown: human IgG1 Fc tail
Method: sIL-13Rα2-Fc was directly coated onto a CM5 chip by standard amine coupling. NHP-IL-13 at 100 nM concentration was injected, and its binding to the immobilized IL-13Rα2-Fc was detected by BIACORE™. An additional injection of 100 nM of anti IL-13 antibodies was added, and changes in binding were monitored.

[4] = target: T1, native human IL-13; test: cell-based or functional assay; remark: listed apart in the source
[5] = target: T2, cynomolgus monkey IL-13 (NHP IL-13); test: SPR (BIACORE), Kd=kd/ka from the kinetic rate constants
Method: (§1) For kinetic analysis, the monoclonal antibody hMJ2-7 V2-11 was captured onto the anti IgG antibody surface by injecting 40 μl of a 1 μg/ml solution. The net difference between the baseline and the point approximately 30 seconds after completion of injection was taken to represent the amount of target bound. Solutions of NHP-IL-13 at 600, 200, 66.6, 22.2, 7.4, 2.5, 0.8, 0.27, 0.09 and 0 nM concentrations were injected in triplicate at a flow rate of […] for 2 minutes, and the amount of bound material as a function of time was recorded (FIG. 8). The dissociation phase was monitored in HBS/EP buffer (10 mM HEPES, pH 7.4, containing 150 mM NaCl, 3 mM EDTA and 0.005% (v/v) Surfactant P20) for 5 minutes at the same flow rate followed by two 5 μl injections of glycine, pH 1.5, to regenerate a fully active capturing surface. All kinetic experiments were done at 22.5° C. in HBS/EP buffer. Blank and buffer effects were subtracted for each sensorgram using double referencing.

[6] = target: T2, cynomolgus monkey IL-13 (NHP IL-13); test: SPR (BIACORE), antibody captured on goat anti-human IgG Fc, NHP-IL-13 at 0.09-600 nM injected, 1:1 model, 22.5 C
Method: as §1

[7] = target: T4, FLAG-tagged NHP IL-13 (cynomolgus monkey, UniProt Q5I6E4 21-132 (Macaca thibetana entry)); test: competition ELISA against biotinylated mouse MJ 2-7
T4 construct: also called NHP IL-13-FLAG; FLAG NHP IL-13; not shown: FLAG tag
T4 chain: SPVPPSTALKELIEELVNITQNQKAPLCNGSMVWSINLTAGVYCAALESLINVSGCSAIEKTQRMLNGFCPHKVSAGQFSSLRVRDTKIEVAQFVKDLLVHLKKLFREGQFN
Method: The ability of fully humanized MJ 2-7 mAb (V1, V2 v2) to compete with biotinylated mouse MJ 2-7 Ab for binding to NHP IL-13-FLAG was evaluated by ELISA. The microtiter plates (Costar) were coated with 1 μg/ml of anti-FLAG monoclonal antibody M2 (Sigma). The FLAG NHP IL-13 protein at concentration of 10 ng/ml was mixed with 10 ng/ml of biotin labeled mouse MJ 2-7 antibody and various concentrations of unlabeled mouse and humanized MJ 2-7 antibody. The mixture was incubated for 2 hours at room temperature and then added to the anti-FLAG antibody-coated plate. Binding of FLAG NHP-IL-13/bioMJ2-7 Ab complexes was detected with streptavidin-HRP and 3,3′,5,5′-tetramethylbenzidine (TMB). […] BIACORE™ analysis also confirmed that NHP IL-13 had rapid binding to and slow dissociation to immobilized h1uMJ 2-7 v2.11.

[8] = target: T2, cynomolgus monkey IL-13 (NHP IL-13); test: sandwich ELISA, capture antibody
From the text: FIG. 20 is a series of bar graphs depicting the increases in serum IL-13 levels in individual cynomolgus monkeys treated with humanized MJ2-7 (hMJ2-7v2-11). The label in each panel (e.g., 120-452) corresponds to the monkey identification number. The “pre” sample was collected prior to administration of the antibody. The time “0” was collected 24-hours post-antibody administration, but prior to Ascaris challenge. The remaining time points were post-Ascaris challenge. The assays used to detect IL-13 levels are able to detect IL-13 in the presence of hMJ2-7v2-11 or hmAb13.2v2 antibodies. More specifically, ELISA plates (MaxiSorp; Nunc, Rochester, N.Y.), were coated overnight at 4° C. with 0.5 ug/ml mAb13.2 in PBS. Plates were washed in PBS containing 0.05% Tween-20 (PBS-Tween). NHP IL-13 standards, or serum dilutions from cynomolgus monkeys, were added and incubated for 2 hours at room temperature. Plates were washed, and 0.3 ug/ml biotinylated MJ1-64 (referred to herein as C65 antibody) was added in PBS-Tween. Plates were incubated 2 hours, room temperature, washed, and binding detected using HRP-streptavidin (Southern Biotechnology Associates) and Sure Blue substrate (Kirkegaard and Perry Labs). For detection of IL-13 in the presence of mAb13.2, the same protocol was followed, excepts that ELISA plates were coated with 0.5 ug/ml MJ2-7.

T1 sequence (P35225 other isoform, or with tags, fused parts or gaps): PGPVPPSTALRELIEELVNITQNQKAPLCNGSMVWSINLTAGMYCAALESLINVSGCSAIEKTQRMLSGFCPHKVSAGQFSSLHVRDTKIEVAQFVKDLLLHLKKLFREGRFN

B1: mouse monoclonal antibody MJ 2-7 (antibody, mouse IgG1, V domains shown)
VH: EVQLQQSGAELVKPGASVKLSCTGSGFNIKDTYIHWVKQRPEQGLEWIGRIDPANDNIKYDPKFQGKATITADTSSNTAYLQLNSLTSEDTAVYYCARSEENWYDFFDYWGQGTTLTVSS
VL: DVLMTQTPLSLPVSLGDQASISCRSSQSIVHSNGNTYLEWYLQKPGQSPKLLIYKVSNRFSGVPDRFSGSGSGTDFTLKISRVEAEDLGVYYCFQGSHIPYTFGGGTKLEIK
notes: also called mAb7.1.1; murine MJ2-7
STAT6 phosphorylation assay in HT-29 cells, 0.3 ng/ml native human IL-13, IC50 [1]: 0.48 nM | STAT6 phosphorylation assay, native human IL-13 at 1 ng/ml, IC50 [1]: ~0.293 nM | tenascin production assay in BEAS-2B cells, 3 ng/ml native human IL-13, IC50 [1]: ~0.1 nM | CD23 expression assay, non-human primate IL-13 at 1 ng/ml, IC50 [2]: ~0.242 nM | binding result [3]: no binding (tested: 100 nM)

B2: humanized MJ 2-7 V2.4 (VH V2.4 / VL V2) (antibody, V domains shown)
VH: EVQLVESGGGLVQPGGSLRLSCAASGFNIKDTYIHWVRQAPGKGLEWVGRIDPANDNIKYDPKFQGRFTISRDNAKNSLYLQMNSLRAEDTAVYYCARSEENWYDFFDYWGQGTLVTVSS
VL: DIQMTQSPSSLSASVGDRVTITCRSSQSIVHSNGNTYLEWYQQKPGKAPKLLIYKVSNRFSGVPSRFSGSGSGTDFTLTISSLQPEDFATYYCFQGSHIPYTFGGGTKVEIKR
Native hIL-13 STAT6 assay IC 50, nM [4]: 17.5 nM

B3: humanized MJ 2-7 V2.5 (VH V2.5 / VL V2) (antibody, V domains shown)
VH: EVQLVESGGGLVQPGGSLRLSCAASGFNIKDTYIHWVRQAPGKGLEWVARIDPANDNIKYDPKFQGKATISADNAKNSLYLQMNSLRAEDTAVYYCARSEENWYDFFDYWGQGTLVTVSS
VL: DIQMTQSPSSLSASVGDRVTITCRSSQSIVHSNGNTYLEWYQQKPGKAPKLLIYKVSNRFSGVPSRFSGSGSGTDFTLTISSLQPEDFATYYCFQGSHIPYTFGGGTKVEIKR
Native hIL-13 STAT6 assay IC 50, nM [4]: 1.75 nM

B4: humanized MJ 2-7 V2.7 (VH V2.7 / VL V2) (antibody, V domains shown)
VH: EVQLVESGGGLVQPGGSLRLSCAASGFNIKDTYIHWVRQAPGKGLEWVGRIDPANDNIKYDPKFQGRFTISADNAKNSLYLQMNSLRAEDTAVYYCARSEENWYDFFDYWGQGTLVTVSS
VL: DIQMTQSPSSLSASVGDRVTITCRSSQSIVHSNGNTYLEWYQQKPGKAPKLLIYKVSNRFSGVPSRFSGSGSGTDFTLTISSLQPEDFATYYCFQGSHIPYTFGGGTKVEIKR
Native hIL-13 STAT6 assay IC 50, nM [4]: 1.7 nM

B5: mouse monoclonal antibody C65 (antibody, V domains shown)
VH: QVQLKESGPGLVAPSQSLSITCTVSGFSLTGYGVNWVRQPPGKGLEWLGIIWGDGSTDYNSALKSRLIINKDNSKSQVFLKMNSLQTDDTARYFCARDKTFYYDGFYRGRMDYWGQGTSVTVSS
VL: DVQMIQSPSSLSASLGDIVTMTCQASQGTSINLNWFQQKPGKAPKLLIFGASNLEDGVPSRFSGSRYGTNFTLTISSLEDEDMATYFCLQHSYLPWTFGGGTKLEIK
fold decrease in STAT6 phosphorylation assay in HT-29 cells, 0.3 ng/ml native human IL-13; activity against that of MJ2-7 [1]: ~20 fold | fold decrease in monocyte CD23 expression assay, 3 ng/ml NHP IL-13; activity against that of MJ2-7 and sIL-13Rα2-Fc [2]: ~20 fold

B6: humanized MJ 2-7 V2.11 IgG1 with a mutated CH2 domain (antibody, V domains shown)
VH: EVQLVESGGGLVQPGGSLRLSCAASGFNIKDTYIHWVRQAPGKGLEWIGRIDPANDNIKYDPKFQGRFTISADNAKNSAYLQMNSLRAEDTAVYYCARSEENWYDFFDYWGQGTLVTVSS
VL: DIQMTQSPSSLSASVGDRVTITCRSSQSIVHSNGNTYLEWYQQKPGKAPKLLIYKVSNRFSGVPSRFSGSGSGTDFTLTISSLQPEDFATYYCFQGSHIPYTFGGGTKVEIKR
notes: VH V2.11 (back mutations V48I); A49G; R72A; L79A; human IgG1 with mutated CH2 and human kappa; also called hMJ2-7 V2-11; huMJ 2-7 V2.11
STAT6 phosphorylation assay in HT-29 cells, 0.3 ng/ml native human IL-13, IC50 [1]: 0.52 nM | Kd [5]: 0.043 nM | koff [6]: 0.000889 s⁻¹ | kon [6]: 2.05e+07 M⁻¹ s⁻¹

B7: sIL-13Rα2-Fc (soluble human IL-13 receptor alpha2 with a human IgG1 Fc tail) (Fc fusion, UniProt Q14627 27-343, looked up, not shown: a dimerising Fc or GST)
chain: DTEIKVNPPQDFEIVDPGYLGYLYLQWQPPLSLDHFKECTVEYELKYRNIGSETWKTIITKNLHYKDGFDLNKGIEAKIHTLLPWQCTNGSEVQSSWAETTYWISPQGIPETKVQDMDCVYYNWQYLLCSWKPGIGVLLDTNYNLFYWYEGLDHALQCVDYIKADGQNIGCRFPYLEASDYKDFYICVNGSSENKPIRSSYFTFQLQNIVKPLPPVYLTFTRESSCEIKLKWSIPLGPIPARCFDYEIEIREDDTTLVTATVENETYTLKTTNETRQLCFVVRSKVNIYCSDDGIWSEWSDKQCWEGEDLSKKTLLR
STAT6 phosphorylation assay in HT-29 cells, 0.3 ng/ml native human IL-13, IC50 [1]: 0.33 nM

B8: humanized MJ 2-7 V2 (CDR grafted; VH V2 / VL V2) (antibody, human IgG1, V domains shown)
VH: EVQLVESGGGLVQPGGSLRLSCAASGFNIKDTYIHWVRQAPGKGLEWVARIDPANDNIKYDPKFQGRFTISRDNAKNSLYLQMNSLRAEDTAVYYCARSEENWYDFFDYWGQGTLVTVSS
VL: DIQMTQSPSSLSASVGDRVTITCRSSQSIVHSNGNTYLEWYQQKPGKAPKLLIYKVSNRFSGVPSRFSGSGSGTDFTLTISSLQPEDFATYYCFQGSHIPYTFGGGTKVEIKR
notes: Expressed in COS cells with human IgG1 (IgG1mut) and human kappa constant regions; also called hMJ2-7 V2; huMJ 2-7 V2
Native hIL-13 STAT6 assay IC 50, nM [4]: > 100 nM | binding result [7]: binds

B9: humanized MJ 2-7 V2.1 (VH V2.1 / VL V2) (antibody, V domains shown)
VH: EVQLVESGGGLVQPGGSLRLSCAASGFNIKDTYIHWVRQAPGKGLEWIGRIDPANDNIKYDPKFQGRFTISRDNAKNSLYLQMNSLRAEDTAVYYCARSEENWYDFFDYWGQGTLVTVSS
VL: DIQMTQSPSSLSASVGDRVTITCRSSQSIVHSNGNTYLEWYQQKPGKAPKLLIYKVSNRFSGVPSRFSGSGSGTDFTLTISSLQPEDFATYYCFQGSHIPYTFGGGTKVEIKR
Native hIL-13 STAT6 assay IC 50, nM [4]: 2.8 nM

B10: humanized MJ 2-7 V2.2 (VH V2.2 / VL V2) (antibody, V domains shown)
VH: EVQLVESGGGLVQPGGSLRLSCAASGFNIKDTYIHWVRQAPGKGLEWVARIDPANDNIKYDPKFQGKATISRDNAKNSLYLQMNSLRAEDTAVYYCARSEENWYDFFDYWGQGTLVTVSS
VL: DIQMTQSPSSLSASVGDRVTITCRSSQSIVHSNGNTYLEWYQQKPGKAPKLLIYKVSNRFSGVPSRFSGSGSGTDFTLTISSLQPEDFATYYCFQGSHIPYTFGGGTKVEIKR
Native hIL-13 STAT6 assay IC 50, nM [4]: > 100 nM

B11: monoclonal antibody 13.2 (mAb13.2) (antibody, mouse IgG1, V domains shown)
VH: EVKLVESGGGLVKPGGSLKLSCAASGFTFISYAMSWVRQTPEKRLEWVASISSGGNTYYPDSVKGRFTISRDNARNILYLQMSSLRSEDTAMYYCARLDGYYFGFAYWGQGTTVTVSS
VL: DIVLTQSPASLAVSLGQRATISCKASESVDNYGKSLMHWYQQKPGQSPKLLIYRASNLESGIPARFSGSGSRTDFTLTINPVEADDVATYYCQQSNEDPWTFGGGTKLEIK
binding result [8]: binds
